Measured values from the nanobody polyreactivity screen of Harvey et al. (2022).

Assay: yeast display, Sf9 membrane polyspecificity reagent, FACS + sequencing; frameworks hold sequencing errors
Procedure, shortened: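 A synthetic nanobody library was expressed on Saccharomyces cerevisiae BJ5465 by galactose induction for 36–48 hours. The library was stained for 1 hour at 4 °C with 10% biotinylated, detergent-solubilized Sf9 membrane reagent and enriched with streptavidin microbeads before FACS. Low and high (top ~1%) gates were set on anti-HA fluorescence for expression and streptavidin fluorescence for reagent binding, and each polyreactivity label reflects the gate of origin.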

| Sequence | polyreactivity (PSR sort gate) |
| --- | --- |
| QVQLVESGGGLVQAGGSLRLTCAPSVRIFTIYDMGRYRQAPGKERELVATITYSSGSTSYADSVKGRFTISRDNAKNTVYLLMNSLKPEDTAVYYCAKKYYSGYGYWGQGTQVTVSS | low polyreactivity |
| QVQLVESGGGLVQAGGSLRLICAASGRTLGGNDMGWYRQAPGKERELVAAITNSASTYADSVKGRFTISRDNAKNTVYLQMNSLKPEDTAVYYCNAPDPSDQHGDYWGQGTQVTVSS | low polyreactivity |
| QVQLVESGGGLVQAGGSLRLSCAASGSSLDSYTMGWSRQAPGKERELVAAITSDGGSTYYADSVKGRFTISRDNAKNTVYLQMNSLKPEDTAVDYCAKLSRYYGFWYTPDFDYWGQGTQVTVSS | high polyreactivity |
| QVQLVESGGGSVQAGGSLRLSCAASGSIFRANAMGWYRQAPGKERELVAAITANGGSTYYADSVKGRFTISRDNAKNTVYLQMNSLKPEDTAVYYCNNARVRGARFDYWGQGTQVTVSS | high polyreactivity |
| QVQLVESGGGLVQAGGSLRLSCAASGFSFPYAMGGYRQAPGKERELVAGISWSGGSTYYADSVKGRFTISRDNAKNTVYLQMNSLKPEDTAVYNCNKYVQSGGTYDYWGQGTQVTVSS | low polyreactivity |
| QVQLVESGGGLVQAGGSLRLSCAASGSTFRFYTMGWYRQAPGKERELVAAISGSGGSTYYADSVKGRFTISRDNAKNTVYLQMNSLKPEDTAVYYCAADKSRYASHRGYWGQGTQVTVSS | low polyreactivity |
| QVQLVESVGGLVQAGGSLRLICDASGFTFYAYAIGWYRQAPGKERELVAAITYIGSTYYADSVKGRFTISRDNAKNTVYLQMNSLKPEETAVYYCAVEFLPSFNRYDYWGQGTQVTVSS | low polyreactivity |
| QVQLVESGGGLVQAGGSLRLSCAASGSILGRNAMGWYRQAPGKERELVAGITWSTVSTYYADSVKGRFTISRDNAKNTVYLQMNSLKPEDTAVYYCAAAPNLWAYRRWYYTYYYWGQGTQVTVSS | high polyreactivity |
| QVQLLESGGGLVQAGGSLRISCAASGIFDPNAMGWYIQAPGKERELVAAITSGGSTNYADSVKGRFTISRDNAKNTFYLQMNSLKPEDTAVYYCNEDYDRPDFYFWVQGTQVTVSS | low polyreactivity |
| QVQLVESGGGLVKAGGSLRLSCAASGRTFASYAMGWYRQAPGKERELVAVITRGGRTYYADSVKGRFTISRDNAKNTVYLQMNSLKPEDTAVYYCNAAYYSSSYLEDYWGQGTQVTVSS | high polyreactivity |
| QVQLVETGGGLVQAGGSLRLSCAASARIFLGYTMGWYRKAPGKEMELVASITWSGGSTYYADSVKGRFTISRDNAKNTVYLQMNRLKPDVTAVYYCNAVYWVARGRYDYWGQGTQVTVSS | high polyreactivity |
| QDQLVESGGRIVQAGGSLRLSCAASGRIFSVYARGWYRQAPGKERELVATISDGGATTYYADSVKGRFTISRDNAKNTVFFQMNSLKPEDTAVYYCAADKRGRPGLPDYDSWGQGTEVTVSS | low polyreactivity |
| QVQLVESGGGLVQAGGSLRLSCAASGRTFTNYAMGWYRQAPGKERELVAAISKRGGTTYYADSVKGRFTISRDNAKNTVYLQMNSLKPEDTAVYYCNKAKTAYRGQYDYWGQGTQVTVSS | high polyreactivity |
| QVQLVESGGGLVQAGGSLRLSCAYSGRTICSNAMGWYRQAPGKESELVARIDSTYYADSVKGRFTISRDNAKNTVYLQMNSLKPEDTAVYYCAADAWDHWTWFYPTNGMDYWGQGTQVNVSS | low polyreactivity |
| QVQLVESGGGLVQAGGSLRLSCAASGRTFYYYAMGWYRQAPGTERELLAAISWSVGRTYYADSVKGRFTISRDNAKNTVYLQMNSLKPEDTAVYFCNAEPPRGYTVSSGREMVYWGQGTQVTGSS | low polyreactivity |
| QVQLVESGGGLVQAGGSLRLSCAASGTTFAGYAMGWYRPEPGKERELVSAISSGDSTNYADSVKGRFTISRDNAKNTVYLQMNSLKPEDTAVYYCNAEYRTRVFWWAASSYDYWGQGTQVTVSS | low polyreactivity |
| QVQLVESGGGLVQAGGSLRLSCAASGSIFYDYALGWYRQAPGKERELVAAINSGDSTYYADSVKGRFTISRDNAKNTVYLQMNSLKPEDTAVYYCAATYFSPFIEYDYWGQGTQVTVSS | low polyreactivity |
| QVQLLESGVGLDQAGGSLRLSCAASGSTFNRNAMGWYRQAPGKERELVAAITYSGGSTYYADSVKGRFTISRDNAKNTVYLQMNSLNPEDTAVYYCNAPYAGMGYWGQGTQVTVSS | low polyreactivity |
| QVQLVESGGGLVQAGGSLRLSCAASGSTFVNYVMGWYRQAPGKERELVAAISRRGTSTRYADSVKGRFTISRDNAKNTVYFQMNSLKPEDTAVYFCAATRYVGVTGYGYWGLGTQVTVSS | high polyreactivity |
| QVQLVESGGGLVQAGGSLRLSCAASGTTFGYYAMGSYRQPPGKDREFVAAISSSGGSTYYPDSVKGRFTISRDNAKNTVYLQMNSLKPEDTAVYYCARVGFPGFYWGQGTEVTVSS | high polyreactivity |
| HVKLQESGDGLVQAGGSLRLSSAPSGTIYSDYGMGGSRQAPGKERELLAGISDGCNTNYTDSVKGRFTISRDNAHRVSADEQPETGGYRGVLLRGSERWLLFYVYWGQGTQVTVSS | high polyreactivity |
| QVQLVESGGGLVQAGGSLRLSCAASGFTYKYYVMGWYRQAPGKERELVASISKRGGSTRYADSVKGRFTISRDYAKNTVYLQMNSLKPEDNAVYYCAAAFVRRPPYVGYSRFDYWGQGTQVTVSS | high polyreactivity |
